Assay [1] addresses cynomolgus monkey EGFR on CHOK1-cynoPro1 (EGFR+/CD3-) cells (cynomolgus monkey). The assay can be described thus: flow cytometry on CHOK1-cynoPro1 cells.
The target of assay [2] is human EGFR on tumor cells (A431, HT-29, MCF-7) (human) (UniProt P00533). Kind of assay: flow cytometry on A431 (EGFR+/CD3-) cells. (In general: A flow cytometer gives signals particle by particle.)
The target in assay [3] is human CD3 on Jurkat.2B8 (CD3+/EGFR-) cells (human) (UniProt P07766). The assay can be described thus: flow cytometry on Jurkat.2B8 (CD3+/EGFR-) cells.
Sequence of human CD3 on Jurkat.2B8 (CD3+/EGFR-) cells (human) (P07766 23-207): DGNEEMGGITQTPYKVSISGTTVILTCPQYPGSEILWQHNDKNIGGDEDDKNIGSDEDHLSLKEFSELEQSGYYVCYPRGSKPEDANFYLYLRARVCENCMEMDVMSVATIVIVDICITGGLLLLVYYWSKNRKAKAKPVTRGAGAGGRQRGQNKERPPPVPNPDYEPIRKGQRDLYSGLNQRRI
The target in assay [4] is cynomolgus monkey CD3 on cynomolgus monkey PBMC / T cells (cynomolgus monkey) (UniProt Q95LI5). Kind of assay: flow cytometry on cyno T cells (cynomolgus monkey PBMC).
Sequence of cynomolgus monkey CD3 on cynomolgus monkey PBMC / T cells (cynomolgus monkey) (Q95LI5 22-198): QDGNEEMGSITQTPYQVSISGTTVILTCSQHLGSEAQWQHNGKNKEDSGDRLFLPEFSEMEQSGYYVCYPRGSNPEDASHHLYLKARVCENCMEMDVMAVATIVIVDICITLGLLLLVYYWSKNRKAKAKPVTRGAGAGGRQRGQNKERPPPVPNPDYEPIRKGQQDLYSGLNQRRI

With IgG4 isotype control (antibody), the Top MFI was 38 MFI in assay [1], 137 MFI in assay [2], 235 MFI in assay [3] and 210 MFI in assay [4].

The values above are taken from US20230008090A1.
